# Experiment: soluble on expression in E. coli; label from the status in PepcDB or PDB records
row,Sequence,soluble on expression in E. coli
1,MGSDKIHHHHHHMKKYLLYMVQVHLNFRRAELESLADLYNLSIDFSQYDANSPFFIVELENDQQAKDWIKRSILTRGIYEYWGQGTTLDELHKDIQRQSNFEQDLQLKFKHSTFKFEFECYKGNSKAKRVEQIETFRYLGFEGKIDMKHPQEVFTVIEEYTPISENVGGKTPTRIYFGRQVQMSNRSAMEKYDLKKRPYKGTTSFEAELSLVSANIAQVKPGTIMYDPFAGTGSFLVAGGHFGSLVIGSDIDGRMIRGKGAQVNISANFKKYGESSQFLDVLTMDFTNNALRNNLVIDTILCDPPYGIRESIKVLGAKDPERFLGKEDMEIDGEKAYLRRDYIPTKKPYALDSLLDDLLQYSSERLPIGGRLAFWMPTANDANIETIVPMHENLELKYNCVQEFNKWSRRLLVYINRGSTFNGSSNHGIKRSKDNFRERYFNNFN,not soluble
2,MGSDKIHHHHHHMKLGFITSILDSWTYEEMMDFASGQGFECVEVACWPQEKAERRYAGVSHIDAERVNQDDAYAEHIVEYAKKSGVEISALAYYPNVMVADKEKSATAVEHLKQVILASKKLGVGMVTTFIGRDQTKNIQENLELVKEIWPPIIKLAEECDVKIAIENCPMLFGKEQWPGGQNLMTTPPIWREVFRILDSDHLGINYDPSHFIWQMIDYIRPLYEFKDKIFHVHYKDIKIYKDKLESCGIMAYPLEYMSPKIPGLGDVDWGKYVSALTDIGYDGYTCIEIEDKAFEDFKEKVENSLIISKRYLEQYVI,not soluble
3,MGSDKIHHHHHHMKLLVTGATGKLGTKIVEHLLTKIEAENVIVSVRDPKKANELASRGIEVRHGDFDEPDTLQQAFAGVDRLLIISTDGEEATRIRQHTAAVEAAKAAGVGLIAYTSIANAEASQNFLARTHQVTEQLIRETGIPFLFFRNNWYLENEQSTIDAVRAGQDWLTSAGNGTVGWALQEDYAEAIATVLVDPKPTKSIYELSGPLHTQQDIAEALGQVLGRPVQVKQVDSATYTAIMQQAGVPEFLLPMLQAIQEGIAAGTLAVESQDFEHILDRPPVSLEDGLRQLVQR,not soluble
4,MGSDKIHHHHHHMKLLWFAHRDIKHPKAGGAERTIYEVGKRLSKLNIGVNLVTVNPGNLLEYENVDGIIIYRIKGNIRTHLYVRKMIKKINPDVIIDDMGHAVPWFSPWFTDKRVIVFFRHLHAKSLPGQVNFFLAKIITLVEKLYPIIYKNNIFVTESDTSENDLIDLGIKKDRIVRIPPGVDLNLFHTGKKTDNVQLLYFGGLRKYKRPEYAITIYENLYKKIDNLKLIIVGDGILLNEIKDKVKGKNYNIVFTGKLEYDELAKIIRESWVNLHFSVTEGWGYSILEASASGTPSVAFKVPGVVDTIIDGYNGFLVNNINEFTDKILYIIKNEDKFILNSRKFAENFTWEKTADLWYKLLNGN,not soluble
5,MGSDKIHHHHHHMKMFKLEEQKLKDLGAIITTNEIKQQPELWLETYEIYKSNKEKLSRFIDTISNNHGQFRVIFTGAGTSAYIGNSILPYLKNKNDIRKYIFEAIPTTDIVSNPYDYLKKDIPTLLISFARSGNSPESLAALNLGNKIVDNFYHLAITCNPEGELAKMTKNDENNYLLLMPSKSNDEGFAMTGSFSCMMLSAMLIFDSLEDDVEKSYINAIIEMGRNVIDRKDEIHELINKDFDRVVYLGSGGLGGLTQEAQLKLLELTAGKISTVYDSPMGFRHGPKSFIDENTLVFEFVSNCLYTRKYDLDVLEEIKRDKIAKFTCAVSVENENNFSGTKFEFKEKYNKLPDVYLAMPYILFAQTIALFVSVKVGNKPDTPSATGTVNRVVKGVTIYEY,not soluble
6,MGSDKIHHHHHHMKNMTLDSLDMLSANILVNLYEKHSASSVAMEMNIPAPKVSRCLQHARMIFNDPLFIRKKHGLEPNEFTRQLYPLVKALVQCGEQLQQLESCHDLAASQVMVLYVSDLLIAELPQRLSSAISEAQLPISYELRTGSVDLVEDLAQGLVDLAIVSESSDRALQDDRLIVSPLTELTHLYLLCSHKHPLLQQEISLGNIANYPYLSAFGQLDKQAPDPFQRYCAQQRLSCHLAPVELGREGLAFHQLYRYLSDDKTVSLLPYSRVYEHSEQLPGLHVCCLSGMDTARLYRDQPYPRLYMLSRSGRGGAHLEWMKQEIGQLIKQNVH,not soluble
7,MGSDKIHHHHHHMKNNHTLIIGGGIVGATLALKLAQDNKPVTLIDARPKRSEADWQQVLGQRDARVYALSLASIHLLKEVGAWQKIAASERKADYSQMQVWQLNGMGELLFGDSGDSNSSTGNSNVANNNDNTEPKMLGSMVEPAVIEHALWQRLSAPDVSQYLTVIAGHKVVDMDWLGATQGYRVTLDNGDVIDARLLVGADGRGSFVRKQAGIELDVLDYNQTAICCAIQTEKPHLATARQAMLPTGTLALLPLADITDEDKANPQHWQSIVWTLPRNQALALVAEHPCYIADKLAAASHYELGAIHKIESIASFPLAAQQAKSYVADNLVLIGDAAHGVHPLAGQGLNLGMLDVRALSKQLAHDYNRSGGTLWGANQTLRSYERLRRPHNSLMMHSFSALNWLFAGSLAQIRPVQQLRNEGMYRVSKIKPLMRLFAKQASGV,not soluble
8,MGSDKIHHHHHHMKPIDLDKLDLLTLSILVSLYENKSATHVSRILDVPASKISRCLHTARLIFGDELFIRRKYGLVPNDYAGKIYPIAKEIVECAKHFNRLNSAEQSHNRYFELVIPGMIAYAYPRALMKAIKEHNKNIHINVSSWSSHSLESVTSDPHCIVMCCCKGPEEILCFDQKLQVEVLATMNRQYLLSCRKHPILKQDISLETIAKYPYINTFIGTQAPILNPFQEYCQAKDLSLNTEMTITSVSSLFDYLSDCQSLAITPYKAVYDMLDDDSGLHACQLSEYECNRLFEVVEPLKLVLVTHPSADNEDTAWLKQQIRELTHELI,not soluble
9,MGSDKIHHHHHHMKPIDQITSWMQEALRPYFGLEPLSAEWDILTVRDGYFICFDGDTIRKRITATELNYQEEDVIIQTSEREVVLPRTARGKEKKLTYTSVSSVMADGIVFSAGIRTLNSGRYGYINVSNYRNSIRLPLPECRDLASKGEIVEWLQSYRERVPADYAHKLERLMHMKNRQHKTIPGDVFRVEIDLHTDGYVLVIGNLRQMQKDELFAEHSIWNDVMTMPLFVRPYLFRTTVRNPSLSEIVASPLSDKCWIVMDNAFLRGNYEYVGSKILAEEDILFPVGYGSSISAQKSDYRLSWGPNSISKASQDTGLKAGRSYMNNGAYSSVSADCFVDRGFPDWDKTLLNPEHLEAWEQVLAEFGFPPDTTYDAFAQRTDGMTRAAYLTYVAENKAYQRKGRAKKKGS,not soluble
10,MGSDKIHHHHHHMKPLRKIRLGIVGCGIAARELHLPALKNLSHLFEITAVTSRTRSHAEEFAKMVGNPAVFDSYEELLESGLVDAVDLTLPVELNLPFIEKALRKGVHVICEKPISTDVETGKKVVELSEKSEKTVYIAENFRHVPAFWKAKELVESGAIGDPVFMNWQIWVGMDENNKYVHTDWRKKPKHVGGFLSDGGVHHAAAMRLILGEIEWISAVAKDLSPLLGGMDFLSSIFEFENGTVGNYTISYSLKGNERFEITGTKGKISISWDKIVLNEEEMKVPQENSYQKEFEDFYQVVAEGKPNDLGSPVQALKDLAFIEACVRSAGNKVFVSSLL,soluble
11,MGSDKIHHHHHHMKPRKQDEKILSDQYSYFEPIISDSCDIKFDGDKRRIGSIFISHEEICFIRKEEDYIFKISLSDVVDYNTVVTIWKNQASLTLNDNRKITFYFVTNSPLTGFISILKTYMQLSRNKETIIPDDNLLINDDDEQTKVEIFDVVGLNYEGRRKELKKLIKKMKTNDAFFFLYSDLKGNELKEELLYEDKVYEIPDYEVIPGVFLQKEPDNPYDENAIKVMISNEYSEFHVGYVPREYASRLVNYIEDTVSCNAYINGGKYKTLDYLEEKIVTKESDYGLRIHVEYKV,not soluble
12,MGSDKIHHHHHHMKQAEEVIHPEALSGTGIMTISREPVVFHCNHYNRFLQLVIEDCHYIDREPILVGSATEVSFRQLRTAFREHPEWSVANRLKYAESMYRFCGFGDLPLGALPHSAEPEFVLVENHSHYGTALRLNYGKRRWPGEHFDLGYAIGALSAIYGQPYGGKIDATALSTGAETTRFHLHLRNSGDRFPLDIPDIPQAVLPQGADQVPPRHIGLHIDEDAIMTAVGTLPLTGDPDGLIPAFGVYLTRHYADYYNLVSFRFERALQEALNTHRYLGEMLWYEYPTLFYYKEKFEHLQGQALARTLLMEAGHICGFNTMGGIMRSDPWYQLIVPQLQCREDWLSGIIACINALGWGVWRIQEIIPNERLILRAWYPYESLGHLRAFGPADHPIDYLMTGIGSSLMNLLYTADITTRPDLTLEFYYQVNRSKAGFWARQTRCMAMGDPYSEVVVERNIL,not soluble
13,MGSDKIHHHHHHMKQIIDIENWERKENFNFFRHFQNPQLSITSEVECGGARQRAKAAGQSFFLHYLYAVLRAANEIPEFRYRIDPDGRVVLYDTIDMLSPIKIKENGKFFTTRFPYHNDFDTFYQEARLIIDAIPEDGDPYAAENEEVADGDYGLILLSATPDLYFTSITGTQEKRSGNNYPLLNAGKAIIREGRLVMPIAMTIHHGFIDGHHLSLFYKKVEDFLK,not soluble
14,MGSDKIHHHHHHMKRDFLGRTLAVIEDLSVEEQMFLYEKTRELKQRWYSGEDVSDFRIKKRNVGIYIVFVEPSTRTKESFINAAKFHSGPNVKVNVFDSEHSSFNKQESYTDTFSMLTGYSDYSIFVVRTRLEGVCRLLERRISEFASRNGIEVPSFINAGDGKHEHPTQELLDEYTFLEQNGFDNSFIHVALVGDLLHGRTVHSKVNGLKIFKNVKVDLVAPEELMMPEHYVEKMKKNGFEVRIFSSIREYLDQKDVAKIWYFTRLQLERMGEDILEKVHVLREAVTFKKEYLDALPEGVKFYHPLPRHKVYPTIPNFLDTLPLNGWETQARNGYWVRIVLLSMFGGALEAPFDTSKKEEKPEEDFIIPAPITHGSKGVQKEGKRGIKPIENGTVIDHIAKGKTPEEIYSTILKIRKILRLYDVDSADGIFRSSDGSFKGYISLPDRYLSKKEIKKLSAISPNTTVNIIKNSTVVEKYRIKLPPTIYGFEELRCKNENCITNPAHGENASPSFVRNEKGQFICEYCETPHSFEEIWSI,not soluble
15,MGSDKIHHHHHHMKRKINYTHIAEPTVFENVFPTYLTNETMMARKQKVLQRMETEKFDQLVFYADKEHGSNFEYLTGFIPRFEEGLLVLNKDGAATLILGNENLKLCQHARISADLIHYLAFSLPNQPMAGEQKLSQIFETLLDETAQKIGIVGWKMFTTQQQEPATMFDVPHFIVEALKKALPKEARLLNGTHLLIGAKGARATNNANELAHYEYGANLASRSMLKALNAIEIGQRETDIGALLNDEGQTPTVVTIAATGQRFEYANMYPTAKEIQLGDALSLTTGYKGGLSSRTGFVIENEQQLPEAQRDYLERVAKPYFQAVVHWLETIRIGLLGREMYQAIEEQLPKEIYHWHLNPGHLVSDDEWMSSPIYPDSAIRLESGMLFQVDIIPSVPGYTGVSAEECVALADETLQKEIQQTYPDMWQRIATRKAYLKETLKLDLPSEVLPMSNLVGYLRPFYLAKDKALCVEKPALK,not soluble
16,MGSDKIHHHHHHMKRLDGIPESMLIPLIARAKEYEYEKPIIKDALSKKIFDGLDDIYKNVTCDDMSQIGISIRSVIIDSVTKRLIKDNKNLIVINIGCGLDTRFQRFNNEKISWIDLDVPESIEIRKTFFKETDSYKMIAKSMLDYSWIEDVINYKFFNSKSNILFIFEGVLMYFDESVMTKLLHTIIKKFGDHNLTFAIEFCSKTIANNTKRHKSVSKLSSQPVFKYGYNDLNELDKVLPNKMKVINEYNYFDYHKKRWGLFGYCRYIPYLKKRLNNKIVIMEYKPAKLITHN,not soluble
17,MGSDKIHHHHHHMKRTTKSIQAEIAKGAFRPHTALSTMALAYYQQETTSFAKNMFPVCPVQLSSDNYYVFDKEDLLRDNWNRKPAYGSVDPAVISEHTENYACHVDQMMMGIDNIRQTDLNRRQGPHTKDPRQQRTKVIATQANIHQDAEFSKSFMRKGVWKNEATGTDSVSVTSGQFIKFSNGNSDPIAFFQNKMTEINEETGRTPNRLGLGVNVYNALKEHPAILERVKYGGSTPNPAKVNLNVLAQLFEIDRIVLDRTVQNKAGLGQNADMGYIGDPNSFLLAYATDTPSVEEPSAGYIFTWDMLENGILLPILNYPGAPGTHSELVEGLMAYDMKKTADDLAFFGCDAV,not soluble
